For this test, the target named is HSV-1 glycoprotein D (gD), wild type, on KOS/tk12 virions (HSV-1 (strain KOS)) (UniProt A1Z0Q5).
Chain of UniProt A1Z0Q5 (A1Z0Q5 26-394): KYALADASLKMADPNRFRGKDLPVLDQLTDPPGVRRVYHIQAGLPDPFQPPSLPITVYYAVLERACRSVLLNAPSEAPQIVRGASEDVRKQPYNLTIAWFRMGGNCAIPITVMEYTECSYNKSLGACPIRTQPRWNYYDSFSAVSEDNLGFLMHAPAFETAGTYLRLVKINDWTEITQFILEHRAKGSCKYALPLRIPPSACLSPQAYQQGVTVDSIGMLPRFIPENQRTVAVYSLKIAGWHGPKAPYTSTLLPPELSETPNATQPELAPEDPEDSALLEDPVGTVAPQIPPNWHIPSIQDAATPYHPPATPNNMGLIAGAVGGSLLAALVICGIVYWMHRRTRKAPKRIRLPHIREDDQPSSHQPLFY

For the substance “sHA102, soluble HVEM (HveA) protein containing the first two cysteine-rich pseudorepeats (N-terminal 102 amino acids of HVEM) (domain or fragment)”, the sHA102-mediated KOS/tk12 infection of receptor-deficient CHO-K1 cells; sHA102 0-1,000 nM, MOI 3 and 9; ONPG assay and X-gal staining (percent of cells infected) (% of the cells infected) lay within 90 to 100.

These data come from PMC3285515.
